Laboratory results as given in patent US11932673B2, “Sodium channel inhibitors” (priority 2017, dated 2024).
Values joined by “and” are separate entries in the source; they are usually repeats but may differ in a detail not shown here. Identical values can stand only once.

Tests used:
[1] = biological target: T1, huASIC1a (Homo sapiens, UniProt P78348); assay: QPatch automated whole-cell patch-clamp on HEK293 cells stably expressing huASIC1a; type: cell-based; settings: full blocking 300 nM PcTx1 (positive control) perfused at end of each KnotBody or control incubation, then pH 6.0; one value per preceding sample
T1 sequence (P78348 whole entry, looked up): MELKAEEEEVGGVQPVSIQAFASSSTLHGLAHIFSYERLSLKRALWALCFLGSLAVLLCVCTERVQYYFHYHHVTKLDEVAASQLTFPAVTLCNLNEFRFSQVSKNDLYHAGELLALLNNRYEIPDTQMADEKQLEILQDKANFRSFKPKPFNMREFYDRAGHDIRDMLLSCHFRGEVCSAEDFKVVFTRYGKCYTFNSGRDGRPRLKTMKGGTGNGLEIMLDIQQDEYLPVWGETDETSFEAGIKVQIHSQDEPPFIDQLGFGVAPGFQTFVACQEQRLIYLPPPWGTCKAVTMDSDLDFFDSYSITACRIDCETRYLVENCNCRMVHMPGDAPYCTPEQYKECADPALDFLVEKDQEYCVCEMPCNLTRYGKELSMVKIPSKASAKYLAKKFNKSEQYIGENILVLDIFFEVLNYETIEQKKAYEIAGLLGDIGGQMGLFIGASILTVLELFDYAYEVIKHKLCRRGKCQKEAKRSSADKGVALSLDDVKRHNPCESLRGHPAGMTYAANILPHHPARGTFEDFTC
Protocol: Knottin Kv 1.3 and ASIC1a blockers expressed in the KnotBody format (see examples 6 and 7) were tested for their ability to inhibit the function of the ion channel targets. The effect of these KnotBodies on cells expressing the human Kv 1.3 (huKv1.3) or human ASIC1a channels was assessed using QPatch automated whole-cell patch-clamp electrophysiology (Sophion).
To functionally assess the ASIC1a KnotBodies, HEK293 cells stably expressing huASIC1a (Sophion) were analysed using a QPatch electrophysiology assay in the presence or absence of the KnotBody fusions (using KB_A12 as a recipient and replacing the original EETI-II donor as shown in Table 8). The “parental” KB_A12 with the EETI-II donor was used as a negative control. Internal and external physiological solutions were freshly prepared prior to the assay. […]
At the end of each KnotBody incubation and subsequent ASIC1a current activation, a full blocking concentration (300 nM) of the ASIC1a knottin inhibitor PcTx1 (positive control) was perfused onto the cell recording and a final activating pH 6.0 external solution was applied. The percentage remaining signal between activating pH 6.0 baseline (i.e. pre-KnotBody) and post-KnotBody incubation was determined.

[2] = tested on: trypsin; assay: Phage TRF binding assay of KnotBody phage on immobilised biotinylated trypsin; settings: EETI-II directly fused to the N-terminus of gene III; TRF
Protocol: Phage display technology facilitates isolation of binders to any given target from large combinatorial repertoires based on proteins and peptides that can be presented on the surface of filamentous phage^105. In order to isolate functional knottin-antibody fusions from the KnotBody libraries multiple rounds of phage display selections on trypsin (cognate antigen for the EETI-II donor) were carried out. Phage particles were prepared by rescuing KnotBody libraries using trypsin cleavable helper phage^102,106 Two rounds of phage display selections were performed on 10 μg/ml biotinylated trypsin immobilised on Streptavidin (for Round-1) or Neutravidin (for round-2) coated Maxisorp™ immunotubes (Thermo Scientific, Cat No. 444202). In both rounds of selection, phage libraries were pre-incubated with streptavidin coated paramagnetic beads (Thermo Fisher Scientific, Cat. No. 11205D). […] Polyclonal phage preparations from round-2 selection outputs were analysed for trypsin binding using a time resolved fluorescence (TRF) binding assay. In this assay, polyclonal phage binding to biotinylated trypsin immobilised on neutravidin (Thermo Fisher Scientific, Cat. No 31000) coated Maxisorp™ plates (Thermo Scientific, Cat. No. 437111) was detected using a mouse anti-M13 antibody (GE Healthcare, Cat. No. 27-9420-01) followed by europium conjugated anti-mouse antibody (Perkin Elmer, Cat. No. AD0124). […]

Substance | % current remaining PcTx1 (300 nM) [1] | binding to trypsin of phage [2]
PcTx1: ASIC1a knottin inhibitor, positive control at 300 nM; SEQ ID NO: 20 | 2% and 1.9% and 2.7% and 3.8% and 3.6% | –
EETI-II [reference compound] | – | no detectable binding to trypsin
